Laboratory results taken from publication PMC6232143.

Legend:
[1] = target: His6.TssA1^B CTD H12-H14 (303-358) (B. cenocepacia); assay: crystal structure; His6.TssA1^B CTD H12-H14 (303-358), 2.35 Å, two molecules in the asymmetric unit
[2] = target: His6.TssA2^A (1-478) (A. hydrophila); assay: SEC-MALS; S200 10/300 column, 50 mM Tris.HCl (pH 8.0), 500 mM NaCl, ~20 °C; 4.5-6.8 mg/ml
[3] = target: His6.TssA2^A CTD (381-478) (A. hydrophila); assay: as above
[4] = target: His6.TssA2^A Nt2 (223-387) (A. hydrophila); assay: crystal structure; His6.TssA2^A Nt2 (223-387), ethyl mercury phosphate derivative, 2.16 Å, two monomers in the asymmetric unit
[5] = target: His6.TssA2^A Nt2-CTD (223-478) (A. hydrophila); assay: crystal structure; His6.TssA2^A Nt2-CTD (223-478), 3.13 Å, ten subunits in the asymmetric unit
[6] = target: His6.TssA2^A Nt2-CTD (223-478) (A. hydrophila); assay: SEC-MALS; S200 10/300 column, 50 mM Tris.HCl (pH 8.0), 500 mM NaCl, ~20 °C; 4.5-6.8 mg/ml
[7] = target: Native TssA1^B (1-373) (B. cenocepacia); assay: SEC-MALS; Superose-6 10/300 column, 10 mM phosphate buffer (pH 7.4), 2.7 mM KCl, 137 mM NaCl, ~20 °C
[8] = target: TssA1^B CTD (303-373) (B. cenocepacia); assay: crystal structure; TssA1^B CTD (303-373), 3.08 Å, spacegroup I222, eight monomers in the asymmetric unit
[9] = target: TssA1^B CTD fragment (303-347) (B. cenocepacia); assay: crystal structure; TssA1^B CTD fragment 303-347 (clipped 303-373 construct), 1.78 Å, spacegroup I222
[10] = target: TssA2^A Nt1-Nt2.His6 (231-374) (A. hydrophila); assay: crystal structure; TssA2^A Nt2 (231-374) from the Nt1-Nt2.His6 construct, 1.76 Å, four molecules in the asymmetric unit

Substance: His6.TssA1^B CTD H12-H14 (303-358) (domain or fragment)
- stoichiometry N [1]: 2

Substance: His6.TssA2^A (1-478) (natural protein)
- stoichiometry N [2]: 10

Substance: His6.TssA2^A CTD (381-478) (domain or fragment)
- stoichiometry N [3]: 10

Substance: His6.TssA2^A Nt2 (223-387) (domain or fragment)
- stoichiometry N [4]: 2

Substance: His6.TssA2^A Nt2-CTD (223-478) (domain or fragment)
- stoichiometry N [5]: 10
- stoichiometry N [6]: 10

Substance: Native TssA1^B (1-373) (natural protein)
- stoichiometry N [7]: 30 subunits

Substance: TssA1^B CTD (303-373) (domain or fragment)
- stoichiometry N [8]: 32 subunits

Substance: TssA1^B CTD fragment (303-347) (domain or fragment)
- stoichiometry N [9]: 2

Substance: TssA2^A Nt1-Nt2.His6 (231-374) (domain or fragment)
- stoichiometry N [10]: 2
